Reference: patent publication US12077763B2, “RNA-based control of powdery mildew” (Greenlight Biosciences, Inc., priority 2021, dated 2024)

B1: GS1827: dsRNA trigger SEQ ID NO 195; gene target Ubiquitin-like modifier-activating enzyme 1 (nucleic acid)
DNA: AAAGTTATCGCCGAAGTCGCAGAATATATATCCAAATAATCCAAAGGTTTCAGTTATTACTACATATATTCCCTTCTCATGTAGATACTGGGAGATTATGAGCTGGTCTTTCAGTGGAATATCTGTCAATATTACAGCTTGATATGAATCAAACTGGGAGAGATCAGAAACTAAGCTTGTGGAGCTGTGAATCTTAACAGGGGTGTAAGCATTTAGTTCCGAAACTCGTTGAGCTGAGACAATATCTCTAGGTTTTCCTATATCTTCTGGGTTAAGAAAGAATTGAGATGATAGGTCAGCGATAGTTGCGGGAGCGGGATCGTATAATGTTAGACTTTTAACTCCAGCCAGAGCTATATTCTTAGCTATTTCGATACCAAGACCTTTCAAGCCAATAATAAGAATATTCGATGCACTCATTCGTTTCATAGCCTCGTGTCCAAGAACGTAGAGTTGCCTACTGTATAAAGACTCATCGATAACATTATTATTTTCTTGTGACTCATCAACTTCCATCTTCATCTTGTCTTCAATTTTACTGACTTCACTCATCTTGAATACTTCCTGTAAATCCAATTTACATCAACTGAATTA
B2: GS1831: dsRNA trigger SEQ ID NO 115; gene target glycosyl_partial (nucleic acid)
DNA: CTGAATTGTTTTGAGACTGTTTATTACGAAACCCATTACTTTTGTCTTTGATATGGAATCTCCGATTGACAAACAATGTTTCGTCAGGTTTTGGTTCATAGCTAGTGGTCATTCCAATGGCACCTCTAATGTTATTAATAACAGTATTGAGTGATTGCTCAGGCATTAAACAAGCTGGGCGACATTCGGGTATATTTGAAACAGATTGTAAAATTTTGTCACGAAGGGTTGTTTCGTCTTGAAAATTTGGTCGCAAGCATAACTGGAGATTACGAAGTTGTTTTACTAATATTTCAAATACATCAAGCAATGGCTTTTCAGAATGTTGACTAGAAAGAAGTTGCAAGGTAATTTTGTTCCATTCATTCTGTGCATTTCTCTGTTTTTGTGGTCCTTCAAATTGGCCAAGCATTAATTGAGAGATTTCATCGATCTGTATTGCATTGCTACAGCGATGATGGTAGAAGTCTAATGCTTCTTTGTTAAACATTAAGAACATAGAAGACAGGATGTCTTTTTCATTTTCGATGCTCGCTAATTCGCATTTTTTCAAAAAGATGTTTAACTTGAAGTTATAGCTATCATCTTTT
B3: GS1833: dsRNA trigger SEQ ID NO 151; gene target Eukaryotic translation Initiation factor 3 subunit G (nucleic acid)
DNA: ACCTCACTAGGGCCTTCAGTAGTTTCATTAATACTAGTTAAAGCATCTCCGCTGTTTTCTTCACCAATTGGAGCCATTGTATCTTTAAAGGGACATCGGGCTGTAAAATGCTCTCCATTACATATACGACATTTAACTTTCTTATCTTTTAATTTGTCTTTCATTATTCCTGCCTCTGTTTTTTCATCTTTGGCATCTTTTTTCCAGTTGGCACTCGGTCTGAAAGTTATATTTTCACCAATAGATGTGGTTGAGCTATCTGGTCCGGGTTGATCTTTAGCAGAGAGTCCAAATTTACTCCACTGCTTTCTCTCGGCAACTCTAGGATTTACAATTTCTTTGTGTGTAGTGAAACGAATTCGTCTGGTATATTTGATCTTTTTTCCATCTTCATCGATTCGATAACTTACGATAGTTTGAGAGCCATCTTTATTAGTTGTTGTAGTTGTAGGAGGAAGTTGTTCTTCAATCCGGTCAACGGAAAGATCTTCATCGTCGGCCCAGTCAGCGCGAACAGATTGTTTAGACATTTTTCAAAATATTTTAATTAAATACTTGCAAATGGAAAGCTTGTAAATTCAAGCAAGTAT
B4: GS1834: dsRNA trigger SEQ ID NO 189; gene target Tubulin beta-2 chain (nucleic acid)
DNA: CTCGTCCATTCCTTCTCCAGTATACCAATGTAAGAAAGCTTTTCTTCTAAACATAGCTGTGAATTGATCCCCAACGCGCTTAAAGAGTTCTTGAATGGAAGTGGAGTTTCCTACAAATGTAGATGACATCTTAAGACCACGAGGTGGAATAGAGCAGAGTGCGGTTTGTACATTATTAGGGATCCACTCGACAAAATATGCAGAGTTCTTATTTTGTACATTGCGCATTTGGTCCTCTACTTCTTTCATTGATACCTTACCTCGAAATATTGCTGAACATGTTAAATAGCGCCCGTTTCGGAAATCAGACGCTGCCATCATATTTTTGGGGTCGTACATTTGCTGAGTCAACTCGGGAACAGTAACTGCGCGGAAAGAGTGGGCACCGCGACTTGTTAGAGGAGCAAATCCAACCATAAAAAAATGAAGACGAGGAAATGGAACCATGTTAACTGCTAACTTTCGAAGATCTGAGTTGAGTTGACCTGGGAAACGAAGACATGTTGTTACACCTGACATGACTGCAGATACCAAATGATTCAAATCACCATATGATGGGTTTGAAAGCTTTAAAGTTCTCATACATATTT
B5: GS1835: dsRNA trigger SEQ ID NO 159; gene target Probable glutamine--fructose-6-phosphate aminotransferase [isomerizing] (nucleic acid)
DNA: CCGATGACAAGGGGAGATCCTTTTCTTGCCGCAATTACTTCATGGGGATAATGGACTGATTTTAGTAGAAGTCCAAATGCTCCTTGCAGCTCCTTGATGACGGCCTTAGCTAAGTCCGTAAAAGTAATTGTTGGGTGCTGGTCATATATATACTTAGCAAGCTTGGCAATACACTCAGTATCAGTCTCTGTCTCAAATTTATGGCCCTTTGAGATAAGTAGGGTTTTGAGCTCTTTATAGTTTATTATGATTCCATTATGAACAACACTGAACTGCCATTTGGGGTCACTACGATGAGGATGGCAATTCAATCTTGATGGAGGGCCATGGGTGGCCCATCTAGTATGTGCAATACCAGCATGGGAGTCAAAAACTTTGGAGTTATCTAGTTGCGACTCCTGGACAAGTTGCTTTAATTTTGCAACCTTTCCAACTTCTTTGAACGCAAAAACTTCATCTTTTTCATCCCCGTCAATTGCGAGCCCGGCACTGTCGTAGCCACGGTATTCCAAGCGAGAGAGACCGTTGACAAGTGTTTCAAGAATGTGTTTGCGATCCTTTTCAATGAGATAATTAATATAGCCAAAGAT
B6: GS1830: dsRNA trigger SEQ ID NO 178; gene target Regulator of nonsense transcripts 1 homolog (nucleic acid)
DNA: CCGAGTTAAAGCTACATTTAAACGTCTTGGGTCACTTAAGAACCCAATTCCTTGATGGTCATTTGATCGAACACATGATAAAACAATGAAGTCTTTTTCACGCCCTTGAAAAGCATCGACTGAAGCAACTTCAATTTCCCTGTAGTTTTCTTTTTTAAAAGTACCAGTGTTTTGCATAGAGCTTACAACGTAACTTCGCTGACCTTCGTAAGGTGTAATAACTCCAATATCGGCAGGCTGAACACCTGCTTTGAAAAATCGGGTTACTATTTTTTCAACATTAGAAGCCTCTGTGCGATTAAGATATGATGTTCCTGAAGCAGAAATCTCTTCATTTCCGAGATTAGACCAAAACATCATCGGTGTATCTCCAACTGGCCAAGGAAAGTCAACTTCATCTCTAAGCCGCTCTTGCATCGTCACACCATTCTGGAGAGTTCCTTCATAGAACATATTTGACGGAAACTCTGATAGGCATGGATGCATACGATACTGGATATTGAGTCGAATAGGGTGCATTTCCAACATGACTAGACGTTCAAAAAGTGACTGATTTAAACCTGCTTTGGCAGCTTTTTTATTCATAATAAC

System: E. necator
Assay: Leaf disc assay, dry inoculum (settling tower), decrease in disease severity / hyphal growth (Example 2)
Conditions: decrease in disease severity (hyphal growth) relative to untreated control; time point 1 (untreated control hyphal growth ≥50%); value ± SE

Molecule	% decrease =/− SE TP1 [%]
B1	45 ± 2
B2	34 ± 6
B3	12 ± 5
B4	8 ± 4
B5	25 ± 6
B6	36 ± 4

Same assay, conditions: decrease in disease severity (hyphal growth) relative to untreated control; time point 2; value ± SE

Molecule	% decrease =/− SE TP2 [%]
B1	40 ± 4
B2	19 ± 6
B3	7 ± 5
B4	15 ± 6
B5	24 ± 6
B6	24 ± 5
